Experimental data reported in the supplement of paper PMC10126150.
± gives the standard deviation of the averaged measurements.

Tested on: ATP
Assay: switch fluorescence ratio, 500 uM ATP over buffer (Cy3 cluster intensity, sum of 5 cycles each) (fold (ratio)); higher = stronger signal-on switching upon ATP binding; sequences stand for … in TCGTCGGCAGCGTCAGATGTGTATAAGAGACAGTTTTTTTTTTTTTTTTTTTTTTTTT…TC
Conditions: aptamer strand: ATP DNA aptamer (quencher-CACCTGGGGGAGTATTGCGGAGGAAGG + anchor), 100 nM annealed; ATP concentration: 500 uM
How it was run: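 Cy3-labelled switching-strand clusters on a modified Illumina MiSeq flow-cell were annealed to 100 nM quencher-labelled ATP aptamer, imaged in selection buffer, then imaged after 15 min with 500 uM ATP at 22 °C. Five buffer/ATP cycles ran, with NaOH stripping and re-annealing between them. The fluorescence ratio is summed target-cycle over summed buffer-cycle Cy3 intensity per cluster, averaged per switch-domain sequence. Clusters outside 100-1000 RFU were excluded.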
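Further: ATP exposure 15 min at 22 °C before imaging.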

Sequence	switch fluorescence ratio
GGTGGGGGCA	0.979 ± 0.029
GGTGGGGGCC	1.03 ± 0.011
GGTGGGGTGA	0.9856 ± 0.0078
GGTGGGTCGG	0.98 ± 0.036
GGTGGGTGCT	0.995 ± 0.052
GGTGGGTTGC	0.9858 ± 0.0086
GGTGGTAAGA	0.978 ± 0.074
GGTGGTCGAG	0.989 ± 0.02
GGTGGTCGGT	0.9787 ± 0.0066
GGTGGTGGGA	0.977 ± 0.04
GGTGGTGGGG	0.968 ± 0.03
GGTGGTTGCA	1 ± 0.024
GGTGTACGGG	0.987 ± 0.036
GGTGTAGTAT	0.9759 ± 0.008
GGTGTATAA	0.995 ± 0.032
GGTGTATTTA	1.02 ± 0.017
GGTGTCAGCT	0.967 ± 0.038
GGTGTCCGGG	0.9986 ± 0.0019
GGTGTCGGGA	0.9705 ± 0.009
GGTGTCGGTC	0.956 ± 0.049
GGTGTGCATA	0.994 ± 0.028
GGTGTGCATG	0.99 ± 0.053
GGTGTGCTTT	1.02 ± 0.025
GGTGTGGGCA	0.998 ± 0.041
GGTGTGGTGG	1.01 ± 0.027

Sequence	switch fluorescence ratio
GGTGTGTTCT	0.985 ± 0.011
GGTGTTACTG	1.03 ± 0.048
GGTGTTCGCA	1.02 ± 0.014
GGTGTTCGGA	1 ± 0.031
GGTGTTGAAG	0.986 ± 0.044
GGTGTTGTTT	0.963 ± 0.019
GGTGTTTATG	0.9841 ± 0.0034
GGTGTTTTAG	0.989 ± 0.021
GGTGTTTTTG	1.05 ± 0.054
GGTTAAAGAG	0.9868 ± 0.008
GGTTAACTTG	0.975 ± 0.034
GGTTAAGAAC	0.993 ± 0.019
GGTTAATGTT	0.998 ± 0.026
GGTTAATTAA	1.03 ± 0.019
GGTTAATTAC	1.02 ± 0.034
GGTTAATTTT	1.02 ± 0.028
GGTTACCTTT	0.996 ± 0.042
GGTTACGGGT	0.994 ± 0.057
GGTTAGCGTC	1.03 ± 0.059
GGTTAGGAAA	0.998 ± 0.021
GGTTAGGCAT	1 ± 0.0058
GGTTAGTGGG	0.998 ± 0.017
GGTTATAGTA	0.989 ± 0.042
GGTTATGTTG	0.977 ± 0.047
GGTTATTAAA	0.998 ± 0.01

Sequence	switch fluorescence ratio
GGTTCAAAGT	0.9703 ± 0.0047
GGTTCAGCCT	1.01 ± 0.018
GGTTCATACG	1.008 ± 0.0041
GGTTCATGTG	1.01 ± 0.015
GGTTCCATGC	1.1 ± 0.014
GGTTCGAAGG	0.95 ± 0.032
GGTTCGCAGC	1.15 ± 0.025
GGTTCGGGGA	0.98 ± 0.019
GGTTCGTGGG	1.01 ± 0.02
GGTTCTAGTG	0.968 ± 0.025
GGTTCTCAGT	0.988 ± 0.0097
GGTTCTCTAG	0.976 ± 0.01
GGTTCTTCAA	1.01 ± 0.023
GGTTGAACAT	0.9661 ± 0.0027
GGTTGACTCT	1.01 ± 0.029
GGTTGCAGCC	1.02 ± 0.026
GGTTGCTGTC	0.964 ± 0.045
GGTTGGAAAA	1.0226 ± 0.00079
GGTTGGAGGC	1.03 ± 0.067
GGTTGGCATG	0.952 ± 0.03
GGTTGGCGTC	0.955 ± 0.041
GGTTGGCTCG	1 ± 0.025
GGTTGGGCTT	0.979 ± 0.012
GGTTGGGTGG	0.986 ± 0.03
GGTTGGTACG	1.01 ± 0.019

Sequence	switch fluorescence ratio
GGTTGGTGCG	1.1 ± 0.074
GGTTGTAAAA	0.9867 ± 0.0092
GGTTGTAAGG	1.01 ± 0.033
GGTTGTATTT	0.962 ± 0.06
GGTTGTGGCT	0.9883 ± 0.0059
GGTTGTTGGA	0.999 ± 0.0057
GGTTTAAATA	1.003 ± 0.0092
GGTTTAAGGG	0.972 ± 0.023
GGTTTACGCT	0.996 ± 0.027
GGTTTAGACT	0.99 ± 0.036
GGTTTAGGAC	0.971 ± 0.016
GGTTTAGGTG	1.14 ± 0.059
GGTTTATTTT	0.9946 ± 0.0013
GGTTTCAAAA	0.99668 ± 0.00038
GGTTTCAGTG	1.01 ± 0.025
GGTTTCGAAT	0.98 ± 0.049
GGTTTCGGTG	1.008 ± 0.0098
GGTTTCGTAG	1.01 ± 0.027
GGTTTCTCGG	1.019 ± 0.0092
GGTTTCTTGC	1.02 ± 0.011
GGTTTGCAGG	0.967 ± 0.05
GGTTTGCGGC	0.994 ± 0.036
GGTTTGGAGA	1.024 ± 0.0091
GGTTTGGCGA	0.988 ± 0.044
GGTTTGGGTA	1.01 ± 0.0044
